Test results as given in patent publication US20060257407A1 (Janssen / Centocor, published 2006).
Like-named read-outs stand apart in the source and are kept apart here.

Tests used:
[1] = molecular target: T1, recombinant human IL-6 (human, UniProt P05231 30-212); experiment: KinExA 3000
T1 construct: Bought from R&D Systems (206-IL-010); Biotinylated or coupled to beads in some assays; also called hIL-6; rhIL-6
Experimental: (§1) The KinExA 3000 instrument, manufactured by Sapidyne, was used to measure binding kinetics. Briefly, human IL-6 was covalently coupled to alzactone beads and the binding of free IgG to the beads was detected on the instrument. […] For example, the chimeric anti-IL-6 antibody was used at a constant concentration of 5 pM and individual tubes were incubated with 0-200 pM of IL-6. Incubations for the other IgGs were set in a similar manner. After the incubation, free IgG in each equilibrated sample was determined on the KinExA 3000 instrument according to the manufacturer's instructions. KD values were determined by the KinExA 3000 software using the KinExA 3000 instrument, as described in more detail below.
(§2) To measure kₒₙ, individual IgGs at 200 pM were mixed with 100-200 pM of human IL-6 and the unbound IgG was detected by binding to human IL-6 covalently coupled to alzactone beads on the KinExA 3000 instrument. A series of measurements were taken over time. The resulting data was used to calculate the kₒₙ with the KinExA 3000 software. koff was calculated by using the formula KD=koff/kₒₙ.

[2] = molecular target: T1, recombinant human IL-6; experiment: cell-based or functional assay
[3] = molecular target: T1, recombinant human IL-6; experiment: cell-based or functional assay; remark: listed apart in the source
[4] = molecular target: T1, recombinant human IL-6; experiment: calculated, KinExA 3000
Experimental: as §1, §2

[5] = molecular target: T1, recombinant human IL-6; experiment: calculated from KD = koff/kon, KinExA 3000
Experimental: as §1, §2

[6] = molecular target: T1, recombinant human IL-6; experiment: KinExA 3000, IgG at 200 pM mixed with 100-200 pM human IL-6, free IgG over time
Experimental: as §2

[7] = molecular target: T1, recombinant human IL-6; experiment: KinExA 3000, equilibrium in solution, IgG at 0.5 pM with serially diluted human IL-6, 20 C
Experimental: as §1

[8] = molecular target: T1, recombinant human IL-6; experiment: KinExA 3000, equilibrium in solution, IgG at 1 pM with serially diluted human IL-6, 20 C
Experimental: as §1

[9] = molecular target: T2, IL-6/sIL-6R complex (human, UniProt P08887 20-358, limits assumed); experiment: EIA: sIL-6R coated, 200 ng/ml human IL-6, antibody dilutions from 10 ug/ml, anti-human IgG-HRP
T2 construct: Formed on the plate: sIL-6R coated at 10 ug/ml, then human IL-6 added at 200 ng/ml; also called sIL-6/sIL-6R complex; IL-6/IL-6R complex
Experimental: Costar EIA plates (Corning/Costar, Acton, Mass.) (Catalog # 9018) were coated with sIL-6R (10 μg/ml in PBS, 100 μl/well) overnight at 4° C. The plates were washed with 0.15M saline containing 0.02% (v/v) Tween 20 and wells were blocked with 1% (w/v) BSA in PBS, 200 μl/well for one hour at room temperature. The wells were washed again then in the sequential format incubated with 200 ng/ml human IL-6 (100 μl/well) in PBS for one hour at room temperature. Antibody was added to all wells in 10-fold serial dilutions from a starting concentration of 10 μg/ml in 100 μl/well for one hour at room temperature. After washing, the wells were incubated with goat anti-human IgG (H+L)-HRP-linked, (10 μg/ml in PBS) for 30 minutes at room temperature. The wells were washed and 100 μl/well of citrate-phosphate substrates solution (0.1M Citric Acid and 0.2M Sodium Phosphate, 0.01% H₂O₂ and 1 mg/ml OPD) was added for 15 minutes at room temperature. The reaction was stopped by addition of 25 μl/well of 4N sulfuric acid and the OD₄₉₀ was read via an automated ELISA plate reader (Molecular Devices Spectromax Plus, Sunnyvale, Calif.).
In addition, AME-A9, AME-A16, AME-18a, AME-20b, AME-22a, and AME-23a can detect IL-6 bound to sgp80 (sIL-6R) in a dose dependent manner using EIA. […] However, preincubation of IL-6 and any of these anti hIL-6 monoclonal antibodies precludes the ability of sIL-6R to bind IL-6.

[10] = molecular target: T1, recombinant human IL-6; experiment: ELISA: IgG dilutions captured on goat anti-human kappa, biotinylated IL-6 at 200 ng/ml, NeutrAvidin-alkaline phosphatase, O.D. 560 after 15 min
Experimental: The ELISA generally used Costar 3366 microtiter plates coated with a goat anti-human kappa antibody. Dilutions of Fab (or IgG) were incubated in the coated wells for 1 hr at 22° C. The wells were then washed with PBS, 0.1% Tween 20 and biotinylated IL-6 at 200 ng/ml was added for 1 hour. After washing, an alkaline phosphatase conjugate of NeutrAvidin was added and incubated for 1 hour at 22° C. A colorimetric substrate was added after extensive washing and the bound IL-6 was determined. A variation of this ELISA included an extended wash step in a beaker of PBS, 0.01% BSA at 37° C. after the biotinylated IL-6 incubation, e.g., an 18 hour extended wash step.

T1 sequence (P05231 30-212 limits assumed): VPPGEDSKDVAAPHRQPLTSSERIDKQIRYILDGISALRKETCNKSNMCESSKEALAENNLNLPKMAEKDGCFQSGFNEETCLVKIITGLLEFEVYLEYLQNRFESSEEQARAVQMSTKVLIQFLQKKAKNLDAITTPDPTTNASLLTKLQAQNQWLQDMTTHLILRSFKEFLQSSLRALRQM
T2 sequence (chain, as listed by the source limits assumed, chain 1 of 2): as the sequence (P05231 30-212 limits assumed) above
T2 sequence (P08887 20-358 limits assumed, chain 2 of 2): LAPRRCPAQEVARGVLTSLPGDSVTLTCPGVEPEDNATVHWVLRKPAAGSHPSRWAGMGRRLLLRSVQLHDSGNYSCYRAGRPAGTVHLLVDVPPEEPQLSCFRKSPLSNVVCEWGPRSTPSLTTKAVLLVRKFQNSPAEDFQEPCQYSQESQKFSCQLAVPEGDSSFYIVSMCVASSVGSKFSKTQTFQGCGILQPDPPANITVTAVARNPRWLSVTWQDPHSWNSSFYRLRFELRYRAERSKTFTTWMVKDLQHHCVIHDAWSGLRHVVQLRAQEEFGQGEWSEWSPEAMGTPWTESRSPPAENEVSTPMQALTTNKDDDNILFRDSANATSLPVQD

| Binder | Improvement Ratio of KD (as compared to chimeric ab) [1] [fold] | Improvement Ratio of kon (against chimeric antibody) [1] [fold] | Improvement Ratio of koff (against chimeric antibody) [4] [fold] | koff [5] [s⁻¹] | kon [6] [M⁻¹ s⁻¹] | Kd [7] [pM] | Kd [8] [pM] | binding result [9] | EC50 (read off the curve) [10] [µg/mL] | EC50, growth of IL-6 dependent 7TD1 cells with 500 pg/ml human IL-6 (ATPlite) [2] [µg/mL] | EC50, growth of IL-6 dependent 7TD1 cells with 500 pg/ml human IL-6 (ATPlite) [3] [pM] | improvement of EC50 against CNTO328, 7TD1 cell assay [3] [fold] |
| --- | --- | --- | --- | --- | --- | --- | --- | --- | --- | --- | --- | --- |
| AME-19a (antibody, V domains shown, Tested as IgG; also called 136; human engineered anti-IL-6 (clone AME-19a) antibody) VH: EVQLVESGGGLVQPGGSLRLSCAASGFTFSPFAMSWVRQAPGKGLEWVAKISPGGSWTYYSDTVTGRFTISRDNAKNSLYLQMNSLRAEDTAVYYCARQLWGYYALDIWGQGTTVTVSS VL: EIVLTQSPATLSLSPGERATLSCSASISVSYMYWYQQKPGQAPRLLIYDMSNLASGIPARFSGSGSGTDFTLTISSLEPEDFAVYYCMQWSGYPYTFGGGTKVEIK | 81.1 | 1.2 | 65 | 2e-07 | 5.5e+06 | 0.037 |  |  |  | 0.00041 | 2.7 | 10 |
| AME-23a (antibody, V domains shown, Tested as IgG; also called 143) VH: EVQLVESGGGLVQPGGSLRLSCAASGFQFSSFAMSWVRQAPGKGLEWVAKISPGGSYTYYSDTVTGRFTISRDNAKNSLYLQMNSLRAEDTAVYYCARQLWGYYALDFWGQGTTVTVSS VL: EIVLTQSPATLSLSPGERATLSCSASYSVSYMYWYQQKPGQAPRLLIYDMSNLASGIPARFSGSGSGTDFTLTISSLEPEDFAVYYCMQWSGYPYTFGGGTKVEIK | 500 | 1.6 | 295 | 4.4e-08 | 7.4e+06 |  | 0.006 | binds |  |  |  |  |

Further lines, with some results ahead:

| Improvement Ratio of KD (as compared to chimeric ab) [1] [fold] | Improvement Ratio of kon (against chimeric antibody) [1] [fold] | Improvement Ratio of koff (against chimeric antibody) [4] [fold] | koff [5] [s⁻¹] | kon [6] [M⁻¹ s⁻¹] | Kd [7] [pM] | Kd [8] [pM] | binding result [9] | EC50 (read off the curve) [10] [µg/mL] | Binder | EC50, growth of IL-6 dependent 7TD1 cells with 500 pg/ml human IL-6 (ATPlite) [2] [µg/mL] | EC50, growth of IL-6 dependent 7TD1 cells with 500 pg/ml human IL-6 (ATPlite) [3] [pM] | improvement of EC50 against CNTO328, 7TD1 cell assay [3] [fold] |
| --- | --- | --- | --- | --- | --- | --- | --- | --- | --- | --- | --- | --- |
| 16.7 | 1.3 | 11.8 | 1.1e-06 | 6e+06 |  | 0.18 |  |  | AME-22a (antibody, V domains shown, Tested as IgG; also called 150) VH: EVQLVESGGGLVQPGGSLRLSCAASGFQFSPFAMSWVRQAPGKGLEWVAKISPGGSWTYYPDTDTGRFTISRDNAKNSLYLQMNSLRAEDTAVYYCARQLWGYYALDFWGQGTTVTVSS VL: EIVLTQSPATLSLSPGERATLSCSASYSVSYMYWYQQKPGQAPRLLIYDFSNLASGIPARFSGSGSGTDFTLTISSLEPEDFAVYYCMQWSGYPYTFGGGTKVEIK |  |  |  |
|  |  |  |  |  |  |  | binds | ~0.09 | AME-A9 (antibody, V domains shown, Human engineered monoclonal antibody, detected with anti-human IgG; also called 104) VH: EVQLVESGGGLVQPGGSLRLSCAASGFTFSSFAMSWVRQAPGKGLEWVAKISSGGSYTYYPDTVTGRFTISRDNAKNSLYLQMNSLRAEDTAVYYCARQLWGYYALDYWGQGTTVTVSS VL: EIVLTQSPATLSLSPGERATLSCSASSSVSYMYWYQQKPGQAPRLLIYDTSNLASGIPARFSGSGSGTDFTLTISSLEPEDFAVYYCSQWSGYPYTFGGGTKVEIK |  |  |  |
